Data: paper PMC6994217 (Science Advances, 2020)
Square brackets hold non-standard residues; d marks the D form. pY = N[C@@H](Cc1ccc(OP(=O)(O)O)cc1)C(=O)O

Key:
[1] = biological target: SHP2^1–220 (tandem SH2, both SH2 domains) (human) (UniProt Q06124); experiment: NMR DOSY
[2] = biological target: SHP2^1–220 (tandem SH2, both SH2 domains) (human) (UniProt Q06124); experiment: SEC-MALS
[3] = biological target: T1, N-terminal SH2 domain of SHP2 (SHP2^1–105) (human, UniProt Q06124-2 1-105); experiment: ITC
T1 sequence: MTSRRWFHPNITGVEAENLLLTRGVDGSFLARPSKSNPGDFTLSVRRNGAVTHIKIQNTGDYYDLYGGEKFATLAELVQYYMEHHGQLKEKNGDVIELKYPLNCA

[4] = biological target: T2, C-terminal SH2 domain of SHP2 (SHP2^106–220) (human, UniProt Q06124-2 106-220); experiment: ITC
T2 sequence: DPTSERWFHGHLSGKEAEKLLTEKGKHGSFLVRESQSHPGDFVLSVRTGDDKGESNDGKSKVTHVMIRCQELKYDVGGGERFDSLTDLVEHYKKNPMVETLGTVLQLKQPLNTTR

Molecule | stoichiometry N (peptide per protein) [1] | stoichiometry N (peptide per protein) [2] | Kd [3] [nM] | Kd [4] [nM]
diphosphorylated bidentate peptide ITIM-[dPEG4]2-ITSM, Ac-FSVD(pY)GELDFQ-(dPEG4)-(dPEG4)-EQTE(pY)ATIVFP-NH2 | 1 |  |  | 
diphosphorylated bidentate peptide ITSM-[dPEG4]2-ITSM, Ac-EQTE(pY)ATIVFP-(dPEG4)-(dPEG4)-EQTE(pY)ATIVFP-NH2 |  | 1 |  | 
Ac-FSVD[pY]GELDFQ-NH2 (SMILES CC(=O)N[C@@H](Cc1ccccc1)C(=O)N[C@@H](CO)C(=O)N[C@H](C(=O)N[C@@H](CC(=O)O)C(=O)N[C@@H](Cc1ccc(OP(=O)(O)O)cc1)C(=O)NCC(=O)N[C@@H](CCC(=O)O)C(=O)N[C@@H](CC(C)C)C(=O)N[C@@H](CC(=O)O)C(=O)N[C@@H](Cc1ccccc1)C(=O)N[C@@H](CCC(N)=O)C(N)=O)C(C)C) [PD-1 ITIM phosphopeptide, Ac-FSVD(pY)GELDFQ-NH2] |  |  | 1900 | 26400
Ac-EQTE[pY]ATIVFP-NH2 (SMILES CC[C@H](C)[C@H](NC(=O)[C@@H](NC(=O)[C@H](C)NC(=O)[C@H](Cc1ccc(OP(=O)(O)O)cc1)NC(=O)[C@H](CCC(=O)O)NC(=O)[C@@H](NC(=O)[C@H](CCC(N)=O)NC(=O)[C@H](CCC(=O)O)NC(C)=O)[C@@H](C)O)[C@@H](C)O)C(=O)N[C@H](C(=O)N[C@@H](Cc1ccccc1)C(=O)N1CCC[C@H]1C(N)=O)C(C)C) [PD-1 ITSM phosphopeptide, Ac-EQTE(pY)ATIVFP-NH2] |  |  | 167 | 13
